Assay results taken from patent US20250326796A1 (SHANGHAI UNIVERSITY, published 2025).

T1: STING (mouse, UniProt Q3TBT3 1-378)
T1 sequence (looked up): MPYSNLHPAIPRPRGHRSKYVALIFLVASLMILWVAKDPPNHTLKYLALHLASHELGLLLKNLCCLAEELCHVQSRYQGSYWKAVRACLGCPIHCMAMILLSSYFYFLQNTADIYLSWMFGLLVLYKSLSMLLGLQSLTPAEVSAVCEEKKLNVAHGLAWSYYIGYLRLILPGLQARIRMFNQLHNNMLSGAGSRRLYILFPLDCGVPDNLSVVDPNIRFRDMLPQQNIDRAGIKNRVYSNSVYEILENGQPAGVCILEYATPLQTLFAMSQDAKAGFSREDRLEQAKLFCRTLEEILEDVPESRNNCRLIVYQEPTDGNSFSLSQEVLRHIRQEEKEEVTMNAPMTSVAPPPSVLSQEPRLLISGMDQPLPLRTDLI


Biological target: T1, STING
Test: cell-based or functional assay

Row | Binder | IC50 for inhibiting Ifnb mRNA (RT-qPCR, RAW264.7 cells stimulated with 2'3'-cGAMP) [µM]
1 | Ac-NFNVAHGLAWSYYIGYLRLIL-NH2 (not fully specified) [SIP-6] | 35.3
2 | Ac-LAWSYYIGYLRL-NH2 [SIP-1] | 8.6
3 | Ac-NFNVAHGLAWSYYIG-NH2 (not fully specified) [SIP-5] | 28.5
4 | NFNVAHGLAWSYYIGYLRLILPELQARIRTYN (N-terminus acetylated (-Ac); C-terminus amidated (-NH2)) [SIP-8] | 32.6
5 | NFNVAHGLAWSYYIGYLRLILPELQ (N-terminus acetylated (-Ac); C-terminus amidated (-NH2)) [SIP-7] | 18.9

Continued, values first:

Row | IC50 for inhibiting Ifnb mRNA (RT-qPCR, RAW264.7 cells stimulated with 2'3'-cGAMP) [µM] | Binder
6 | 41.9 | NFNVAHGLAWSYYIGYLRLILPELQARIRTYNQHYNNL (not fully specified; N-terminus acetylated (-Ac); C-terminus amidated (-NH2)) [SIP-9]
7 | 66.3 | NFNVAHGLAWSYYIGYLRLILPELQARIRTYNQHYNNLL (N-terminus acetylated (-Ac); C-terminus amidated (-NH2)) [SIP-10]
8 | 53.2 | NFNVAHGLAWSYYIGYLRLILPELQARIRTYNQHYNNLLR (N-terminus acetylated (-Ac); C-terminus amidated (-NH2)) [SIP-11]
